Measured values published in US20070092518A1 (published 2007).

What follows are binders tested against T1, human tumor necrosis factor-α (rHuTNF-alpha, Biosource) (human, UniProt P01375 77-233) (assay: solid-phase ELISA, Fab lysate on coated rHuTNF-alpha).
T1 construct: Bought recombinant protein coated on ELISA plates; The TNFα of the Biacore assay is not described further; also called TNFα; human TNFα
Experimental: The Fab libraries were cloned into pTrcHis2A (Cat. No. V365-20, Invitrogen, Carlsbad, Calif.). Proteins were expressed in E. coli and solid-phase ELISA was used to assess Fab binding to human TNFα. Briefly, 96-well plates were coated overnight at 4° C. with 1 μg/ml of rHuTNF-alpha (Biosource, Camarillo, Calif.) in Carbonate-bicarbonate buffer, pH9.4. After washing in PBS with 0.05% (w/v) Tween-20, the wells were blocked with 1% (w/v) BSA in PBS for 1 hour at room temperature. After washing, plates were incubated with transformed E. coli cell lysate diluted in the assay buffer (1% BSA and 0.05% Tween-20 in 10 mM PBS) for 2 hours at room temperature. Various concentrations of infliximab (0.5, 1 and 2 ng/ml) were used as positive anti-Human Kappa Light Chain Biotin/anti-penta-His Biotin control. Plates were washed and incubated with ImmunoPure Goat Anti-Human Kappa Chain, Biotin Conjugated (Cat. No. 31780, Pierce Biotechnology, Rockford, Ill.) and Penta-His Biotin Conjugate (Cat. No. 34440, QIAGEN, Valencia, Calif.) diluted 1:2000 in the assay buffer for 1 hour at room temperature. Following another washing step, plates were probed for 1 hour at room temperature with 100 μL/well of Streptavidin POD (Cat. No. 1089153, Roche Applied Science, Indianapolis, Ind.) diluted 1:4000 in the assay buffer. Plates were further washed and then incubated with 3,3′,5,5′-tetramentylbenzidine (TMB, Cat. No. 34028, Pierce Biotechnology) for 30 minutes. Substrate development was stopped by addition of 100 μL/well TMB Stop Solution (Cat. No. 50-85-05, KPL, Gaithersburg, Md.) and the absorbance was measured at 450 nm via an automated plate spectrophotometer.

T1 sequence (P01375 77-233 limits assumed): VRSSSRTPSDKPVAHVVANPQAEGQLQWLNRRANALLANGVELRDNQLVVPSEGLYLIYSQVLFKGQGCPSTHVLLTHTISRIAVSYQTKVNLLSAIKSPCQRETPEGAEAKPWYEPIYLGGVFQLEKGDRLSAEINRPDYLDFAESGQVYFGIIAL

| Binder | binding result |
| --- | --- |
| SEQ ID NO 24 (Fab, V domains shown, Fab, E. coli lysate) VH: EVQLTESGGGLVQPGGSLRLSCAASGSIFSNHWMNWVRQAPGKGLEWIGEIRSKSINGATSYAESVKGRFIISRDDNGNSLTLEMNSLKTEDTAEYYCAQNYYGSTPDYWGQGTLVTVS VL: EIVLTQSPDFQSVTPKEKVTITCRASQFVGSSIHWYQQKPDQSPKLLIKYASESMSGVPSRFSGSGSGTDFTFTISSLEAEDAATYYCQQSHSWPFTFGPGTKVDIK | binds |
| SEQ ID NO 25 (Fab, V domains shown, Fab, E. coli lysate) VH: EVQLVESGGGLVQPGGSLRLSCRASQFIFSNHYMNWVRQAPGKGLEWIGEIRSKSINSATHYAESVKGRFIISRDGNKTSLYLEMNSLKTEDTAEYYCAQNYYGSTPDYWGQGTLVTVS VL: EIVLTQSPDFQSVTPKEKVTITCRASQFVGSSIHWYQQKPDQSPKLLIKYASESMSGVPSRFSGSGSGTDFTFTISSLEAEDAATYYCQQSHSWPFTFGPGTKVDIK | binds |
| SEQ ID NO 26 (Fab, V domains shown, Fab, E. coli lysate) VH: EVQLVESGGGLVQPGGSLRLSCRASQFTFSNHYMNWVRQAPGKGLEWIGEIRSKSIYSATHYAESVKGRFIISRDDNKNDLTLEMNSLKTEDTAEYYCARNYYGSTYDYWGQGTLVTVS VL: EIVLTQSPDFQSVTPKEKVTITCRASQFVGSSIHWYQQKPDQSPKLLIKYASESMSGVPSRFSGSGSGTDFTFTISSLEAEDAATYYCQQSHSWPFTFGPGTKVDIK | binds |
| SEQ ID NO 27 (Fab, V domains shown, Fab, E. coli lysate) VH: EVQLVESGGGLVQPGGSLRLSCAASQFIFSNHYMNWVRQAPGKGLEWIGEIRSKSSNGATHYAESVKGRFIISRDDNKNDLYLEMNSLKTEDTAEYYCAQNYYGSTPDYWGQGTLVTVS VL: EIVLTQSPDFQSVTPKEKVTITCRASQFVGSSIHWYQQKPDQSPKLLIKYASESMSGVPSRFSGSGSGTDFTFTISSLEAEDAATYYCQQSHSWPFTFGPGTKVDIK | binds |
| SEQ ID NO 28 (Fab, V domains shown, Fab, E. coli lysate) VH: EVQLVESGGGLVQPGGSLRLSCAASGSTFSNHWMNWVRQAPGKGLEWIGEIRSKSSYGATSYAESVKGRFIISRDGNGNSLTLEMNSLKTEDTAEYYCAQNYYGSTPDYWGQGTLVTVS VL: EIVLTQSPDFQSVTPKEKVTITCRASQFVGSSIHWYQQKPDQSPKLLIKYASESMSGVPSRFSGSGSGTDFTFTISSLEAEDAATYYCQQSHSWPFTFGPGTKVDIK | binds |
| SEQ ID NO 31 (Fab, V domains shown, Fab, E. coli lysate) VH: EVQLTESGGGLVQPGGSLRLSCAASQFIFSNHYMNWVRQAPGKGLEWIGEIRSKSSYGATHYAESVKGRFIISRDGNKTDLTLEMNSLKTEDTAEYYCAQNYYGSTYDYWGQGTLVTVS VL: EIVLTQSPDFQSVTPKEKVTITCRASQFVGSSIHWYQQKPDQSPKLLIKYASESMSGVPSRFSGSGSGTDFTFTISSLEAEDAATYYCQQSHSWPFTFGPGTKVDIK | binds |
| SEQ ID NO 33 (Fab, V domains shown, Fab, E. coli lysate) VH: EVQLVESGGGLVQPGGSLRLSCRASGSIFSNHYMNWVRQAPGKGLEWIGEIRSKSSNGATHYAESVKGRFIISRDDNKNSLYLEMNSLKTEDTAEYYCARNYYGSTYDYWGQGTLVTVS VL: EIVLTQSPDFQSVTPKEKVTITCRASQFVGSSIHWYQQKPDQSPKLLIKYASESMSGVPSRFSGSGSGTDFTFTISSLEAEDAATYYCQQSHSWPFTFGPGTKVDIK | binds |
| SEQ ID NO 36 (Fab, V domains shown, Fab, E. coli lysate) VH: EVQLVESGGGLVQPGGSLRLSCAASQFTFSNHYMNWVRQAPGKGLEWIGEIRSKSIYGATSYAESVKGRFIISRDDNGTSLYLEMNSLKTEDTAEYYCARNYYGSTYDYWGQGTLVTVS VL: EIVLTQSPDFQSVTPKEKVTITCRASQFVGSSIHWYQQKPDQSPKLLIKYASESMSGVPSRFSGSGSGTDFTFTISSLEAEDAATYYCQQSHSWPFTFGPGTKVDIK | binds |
| SEQ ID NO 40 (Fab, V domains shown, Fab, E. coli lysate) VH: EVQLVESGGGLVQPGGSLRLSCAASGSTFSNHYMNWVRQAPGKGLEWIGEIRSKSINSATSYAESVKGRFIISRDGNGTSLYLEMNSLKTEDTAEYYCARNYYGSTYDYWGQGTLVTVS VL: EIVLTQSPDFQSVTPKEKVTITCRASQFVGSSIHWYQQKPDQSPKLLIKYASESMSGVPSRFSGSGSGTDFTFTISSLEAEDAATYYCQQSHSWPFTFGPGTKVDIK | binds |
| SEQ ID NO 42 (Fab, V domains shown, Fab, E. coli lysate) VH: EVQLVESGGGLVQPGGSLRLSCAASGFTFSNHYMNWVRQAPGKGLEWIGEIRSKSSYSATSYAESVKGRFIISRDDNKNSLTLEMNSLKTEDTAEYYCARNYYGSTPDYWGQGTLVTVS VL: EIVLTQSPDFQSVTPKEKVTITCRASQFVGSSIHWYQQKPDQSPKLLIKYASESMSGVPSRFSGSGSGTDFTFTISSLEAEDAATYYCQQSHSWPFTFGPGTKVDIK | binds |
| SEQ ID NO 43 (Fab, V domains shown, Fab, E. coli lysate) VH: EVQLVESGGGLVQPGGSLRLSCRASGSIFSNHWMNWVRQAPGKGLEWIGEIRSKSINGATSYAESVKGRFIISRDDNGNSLTLEMNSLKTEDTAEYYCAQNYYGSTPDYWGQGTLVTVS VL: EIVLTQSPDFQSVTPKEKVTITCRASQFVGSSIHWYQQKPDQSPKLLIKYASESMSGVPSRFSGSGSGTDFTFTISSLEAEDAATYYCQQSHSWPFTFGPGTKVDIK | binds |
| SEQ ID NO 44 (Fab, V domains shown, Fab, E. coli lysate) VH: EVQLTESGGGLVQPGGSLRLSCAASGFTFSNHWMNWVRQAPGKGLEWIGEIRSKSSYSATHYAESVKGRFIISRDDNKTDLTLEMNSLKTEDTAEYYCARNYYGSTYDYWGQGTLVTVS VL: EIVLTQSPDFQSVTPKEKVTITCRASQFVGSSIHWYQQKPDQSPKLLIKYASESMSGVPSRFSGSGSGTDFTFTISSLEAEDAATYYCQQSHSWPFTFGPGTKVDIK | binds |
| SEQ ID NO 45 (Fab, V domains shown, Fab, E. coli lysate) VH: EVQLVESGGGLVQPGGSLRLSCRASGFIFSNHWMNWVRQAPGKGLEWIGEIRSKSIYSATHYAESVKGRFIISRDGNGNDLTLEMNSLKTEDTAEYYCARNYYGSTPDYWGQGTLVTVS VL: EIVLTQSPDFQSVTPKEKVTITCRASQFVGSSIHWYQQKPDQSPKLLIKYASESMSGVPSRFSGSGSGTDFTFTISSLEAEDAATYYCQQSHSWPFTFGPGTKVDIK | binds |
| SEQ ID NO 46 (Fab, V domains shown, Fab, E. coli lysate) VH: EVQLVESGGGLVQPGGSLRLSCRASGSTFSNHYMNWVRQAPGKGLEWIGEIRSKSSYGATSYAESVKGRFIISRDGNGNDLYLEMNSLKTEDTAEYYCAQNYYGSTPDYWGQGTLVTVS VL: EIVLTQSPDFQSVTPKEKVTITCRASQFVGSSIHWYQQKPDQSPKLLIKYASESMSGVPSRFSGSGSGTDFTFTISSLEAEDAATYYCQQSHSWPFTFGPGTKVDIK | binds |
| SEQ ID NO 49 (Fab, V domains shown, Fab, E. coli lysate) VH: EVQLTESGGGLVQPGGSLRLSCAASQFIFSNHWMNWVRQAPGKGLEWIGEIRSKSSYGATHYAESVKGRFIISRDGNGNSLYLEMNSLKTEDTAEYYCAQNYYGSTYDYWGQGTLVTVS VL: EIVLTQSPDFQSVTPKEKVTITCRASQFVGSSIHWYQQKPDQSPKLLIKYASESMSGVPSRFSGSGSGTDFTFTISSLEAEDAATYYCQQSHSWPFTFGPGTKVDIK | binds |
| SEQ ID NO 51 (Fab, V domains shown, Fab, E. coli lysate) VH: EVQLTESGGGLVQPGGSLRLSCRASGFIFSNHYMNWVRQAPGKGLEWIGEIRSKSSYSATSYAESVKGRFIISRDGNKNDLTLEMNSLKTEDTAEYYCARNYYGSTYDYWGQGTLVTVS VL: EIVLTQSPDFQSVTPKEKVTITCRASQFVGSSIHWYQQKPDQSPKLLIKYASESMSGVPSRFSGSGSGTDFTFTISSLEAEDAATYYCQQSHSWPFTFGPGTKVDIK | binds |
| SEQ ID NO 52 (Fab, V domains shown, Fab, E. coli lysate) VH: EVQLVESGGGLVQPGGSLRLSCRASGSIFSNHWMNWVRQAPGKGLEWIGEIRSKSSYSATHYAESVKGRFIISRDGNGNSLTLEMNSLKTEDTAEYYCARNYYGSTYDYWGQGTLVTVS VL: EIVLTQSPDFQSVTPKEKVTITCRASQFVGSSIHWYQQKPDQSPKLLIKYASESMSGVPSRFSGSGSGTDFTFTISSLEAEDAATYYCQQSHSWPFTFGPGTKVDIK | binds |
| SEQ ID NO 54 (Fab, V domains shown, Fab, E. coli lysate) VH: EVQLTESGGGLVQPGGSLRLSCAASGSIFSNHYMNWVRQAPGKGLEWIGEIRSKSIYGATSYAESVKGRFIISRDGNGNSLYLEMNSLKTEDTAEYYCAQNYYGSTPDYWGQGTLVTVS VL: EIVLTQSPDFQSVTPKEKVTITCRASQFVGSSIHWYQQKPDQSPKLLIKYASESMSGVPSRFSGSGSGTDFTFTISSLEAEDAATYYCQQSHSWPFTFGPGTKVDIK | binds |
| SEQ ID NO 57 (Fab, V domains shown, Fab, E. coli lysate) VH: EVQLTESGGGLVQPGGSLRLSCAASGFIFSNHWMNWVRQAPGKGLEWIGEIRSKSSYSATHYAESVKGRFIISRDDNGTSLYLEMNSLKTEDTAEYYCAQNYYGSTYDYWGQGTLVTVS VL: EIVLTQSPDFQSVTPKEKVTITCRASQFVGSSIHWYQQKPDQSPKLLIKYASESMSGVPSRFSGSGSGTDFTFTISSLEAEDAATYYCQQSHSWPFTFGPGTKVDIK | binds |
